# Patent publication US20230226151A1 (NGM BIOPHARMACEUTICALS, published 2023)
# B1: M70 (FGF19 variant) (ligand)
# chain: MRDSSPLVHYGWGDPIRLRHLYTSGPHGLSSCFLRIRADGVVDCARGQSAHSLLEIKAVALRTVAIKGVHSVRYLCMGADGKMQGLLQYSEEDCAFEEEIRPDGYNVYRSEKHRLPVSLSSAKQRQLYKNRGFLPLSHFLPMLPMVPEEPEDLRGHLESDMFSSPLETDSMDPFGLVTGLEAVRSPSFEK
# Molecular target: Mouse FGFR4/β-klotho complex co-expressed in L6 cells (mouse, UniProt Q03142 17-799; Q99N32 1-1043)
# Experiment: cell-based or functional assay
# Chain of Mouse FGFR4/β-klotho complex co-expressed in L6 cells (Q03142 17-799, chain 1 of 2): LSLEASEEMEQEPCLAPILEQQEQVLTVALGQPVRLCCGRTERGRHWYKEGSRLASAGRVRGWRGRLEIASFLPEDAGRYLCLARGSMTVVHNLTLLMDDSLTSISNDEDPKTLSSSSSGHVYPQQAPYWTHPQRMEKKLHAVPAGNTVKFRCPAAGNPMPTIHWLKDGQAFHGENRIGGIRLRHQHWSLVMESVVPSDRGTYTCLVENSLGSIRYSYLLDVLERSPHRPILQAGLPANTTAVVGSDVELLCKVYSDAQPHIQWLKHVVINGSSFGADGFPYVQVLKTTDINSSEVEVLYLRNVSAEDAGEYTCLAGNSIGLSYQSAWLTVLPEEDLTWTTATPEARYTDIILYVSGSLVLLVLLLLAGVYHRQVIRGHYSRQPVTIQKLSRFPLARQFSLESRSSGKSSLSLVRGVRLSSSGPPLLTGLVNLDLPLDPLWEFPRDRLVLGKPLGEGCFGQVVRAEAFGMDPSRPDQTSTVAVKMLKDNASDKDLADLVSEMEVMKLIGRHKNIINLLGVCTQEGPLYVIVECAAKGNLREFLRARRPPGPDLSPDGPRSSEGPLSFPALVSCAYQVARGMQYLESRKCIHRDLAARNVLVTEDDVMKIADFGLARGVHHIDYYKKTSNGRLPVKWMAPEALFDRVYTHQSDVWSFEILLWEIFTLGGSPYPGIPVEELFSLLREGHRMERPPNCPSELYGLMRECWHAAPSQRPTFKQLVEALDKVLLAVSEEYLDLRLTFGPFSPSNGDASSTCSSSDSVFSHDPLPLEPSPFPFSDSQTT
# Chain of Mouse FGFR4/β-klotho complex co-expressed in L6 cells (Q99N32 whole entry, chain 2 of 2): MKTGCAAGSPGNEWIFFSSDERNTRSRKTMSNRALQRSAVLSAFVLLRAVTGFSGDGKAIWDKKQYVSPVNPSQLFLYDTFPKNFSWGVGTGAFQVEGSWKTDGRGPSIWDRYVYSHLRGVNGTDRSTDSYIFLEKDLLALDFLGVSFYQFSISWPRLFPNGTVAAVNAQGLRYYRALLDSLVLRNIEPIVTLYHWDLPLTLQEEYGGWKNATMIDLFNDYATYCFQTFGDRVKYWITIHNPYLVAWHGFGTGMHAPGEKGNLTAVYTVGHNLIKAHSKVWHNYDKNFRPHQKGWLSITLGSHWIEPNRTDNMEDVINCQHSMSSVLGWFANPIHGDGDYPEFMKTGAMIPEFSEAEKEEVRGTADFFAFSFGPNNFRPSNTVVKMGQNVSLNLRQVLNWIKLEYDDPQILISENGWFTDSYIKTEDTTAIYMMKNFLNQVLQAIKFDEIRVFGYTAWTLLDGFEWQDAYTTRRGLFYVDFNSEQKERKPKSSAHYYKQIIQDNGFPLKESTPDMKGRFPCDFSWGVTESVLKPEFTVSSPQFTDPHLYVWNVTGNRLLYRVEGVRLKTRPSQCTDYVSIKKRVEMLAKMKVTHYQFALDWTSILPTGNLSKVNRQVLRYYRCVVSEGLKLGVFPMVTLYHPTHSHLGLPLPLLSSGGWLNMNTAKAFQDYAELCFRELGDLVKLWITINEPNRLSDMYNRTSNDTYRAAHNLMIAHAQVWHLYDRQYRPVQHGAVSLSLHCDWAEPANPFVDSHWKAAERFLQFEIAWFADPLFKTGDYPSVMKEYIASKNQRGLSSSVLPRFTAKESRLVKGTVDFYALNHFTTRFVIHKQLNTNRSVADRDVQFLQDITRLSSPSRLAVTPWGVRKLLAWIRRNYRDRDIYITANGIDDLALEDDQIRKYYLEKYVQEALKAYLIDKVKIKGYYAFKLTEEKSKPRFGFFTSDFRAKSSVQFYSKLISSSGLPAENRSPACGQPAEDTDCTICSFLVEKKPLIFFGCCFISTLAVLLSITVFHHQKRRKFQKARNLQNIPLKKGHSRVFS
binder,measurement,value
B1,"EC50 (pM), ELK1 luciferase reporter in L6 cells",38.3 pM
same,"Emax (fold potentiation), ELK1 luciferase reporter in L6 cells",1.85 fold potentiation
